T1: MdNAC1 (Malus domestica, UniProt D9ZJ87 1-280)
T1 sequence: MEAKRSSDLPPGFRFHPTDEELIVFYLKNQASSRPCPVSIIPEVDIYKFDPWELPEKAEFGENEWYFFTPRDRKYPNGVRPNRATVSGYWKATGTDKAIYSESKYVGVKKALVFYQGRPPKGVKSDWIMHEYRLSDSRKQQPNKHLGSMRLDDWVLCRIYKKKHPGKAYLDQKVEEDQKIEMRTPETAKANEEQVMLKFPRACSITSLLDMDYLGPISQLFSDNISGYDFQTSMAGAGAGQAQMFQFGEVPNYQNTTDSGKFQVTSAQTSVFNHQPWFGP


How the values were obtained:
MdNAC1 [1] = biological target: T1, MdNAC1; assay: EMSA; unlabeled competitor decreased binding; Thermo Scientific Pierce EMSA kit protocol; buffer, salt, pH and temperature not stated; cold probe 100x; settings: protein: recombinant; tags: His (pET32a); chain copies: 2; label: 3' biotin; blunt
MdNAC1 [2] = biological target: T1, MdNAC1; assay: EMSA; Thermo Scientific Pierce EMSA kit protocol; buffer, salt, pH and temperature not stated; cold probe 100x; settings: protein: recombinant; tags: His (pET32a); chain copies: 2; label: 3' biotin; blunt

| Binder | binding result (MdNAC1 [1]) | binding result (MdNAC1 [2]) |
| --- | --- | --- |
| MYB10 hot probe (dsDNA) DNA 1: TTTAATAAAAAGGACCCTGAACACGTGGGAACCGGCCCGTTTGTAA DNA 2: TTACAAACGGGCCGGTTCCCACGTGTTCAGGGTCCTTTTTATTAAA | binds | – |
| MYB10 mutant probe (dsDNA) DNA 1: TTTAATAAAAAGGACCCTGAATTAATGGGAACCGGCCCGTTTGTAA DNA 2: TTACAAACGGGCCGGTTCCCATTAATTCAGGGTCCTTTTTATTAAA | – | no binding |
| UFGT hot probe (box 1) (dsDNA) DNA 1: GTGATTGGCTTCTGATGTTGACACGTGTCGCGCTGTGGTTGGCTTC DNA 2: GAAGCCAACCACAGCGCGACACGTGTCAACATCAGAAGCCAATCAC | binds | – |
| UFGT mutant probe (box 1) (dsDNA) DNA 1: GTGATTGGCTTCTGATGTTGACCTCTGTCGCGCTGTGGTTGGCTTC DNA 2: GAAGCCAACCACAGCGCGACAGAGGTCAACATCAGAAGCCAATCAC | – | no binding |

Reference: article PMC10186271, “The ABA-induced NAC transcription factor MdNAC1 interacts with a bZIP-type transcription factor to promote anthocyanin synthesis in red-fleshed apples”
